Literature values as cited in paper PMC4828448.

Molecular target: nisin (Lactococcus lactis) (UniProt P13068)
UniProt P13068, sequence (P13068 24-57): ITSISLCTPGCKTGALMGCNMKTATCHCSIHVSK

In the case of NisI (from UniProt P42708), the Kd is given as 1000 nM.
